# T1: KSRP KH3 (UniProt Q92945 323-418)
# T1 sequence: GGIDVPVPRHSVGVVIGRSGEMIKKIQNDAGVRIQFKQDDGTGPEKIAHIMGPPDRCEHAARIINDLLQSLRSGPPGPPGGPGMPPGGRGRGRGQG
# T2: KSRP KH4 (UniProt Q92945 423-525)
# T2 sequence: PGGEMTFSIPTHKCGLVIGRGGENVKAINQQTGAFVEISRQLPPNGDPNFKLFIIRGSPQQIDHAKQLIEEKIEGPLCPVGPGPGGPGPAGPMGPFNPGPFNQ
# T3: KSRP KH2 (UniProt Q92945 233-305)
# T3 sequence: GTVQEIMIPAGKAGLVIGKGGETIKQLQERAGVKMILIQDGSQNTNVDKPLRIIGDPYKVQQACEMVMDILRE
# T4: KSRP KH1 (UniProt Q92945 130-218)
# T4 sequence: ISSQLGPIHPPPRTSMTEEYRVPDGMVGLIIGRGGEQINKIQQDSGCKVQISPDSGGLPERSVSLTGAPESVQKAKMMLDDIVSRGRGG
# B1: UAGGUU (UAGGUA in Fig 4b legend) (ssRNA)
# RNA: UAGGUU
# B2: UAUUAU (ssRNA)
# RNA: UAUUAU
# B3: uCCCC (ssRNA)
# RNA: UCCCC
# B4: UAGUAU (ssRNA)
# RNA: UAGUAU
# Assays:
# Assay in all cases: NMR 15N-HSQC titration
# KSRP KH3 [1] = biological target: T1, KSRP KH3
# KSRP KH3 [2] = biological target: T1, KSRP KH3; remark: listed apart in the source
# KSRP KH4 = biological target: T2, KSRP KH4
# KSRP KH2 = biological target: T3, KSRP KH2
# KSRP KH1 = biological target: T4, KSRP KH1
# KSRP KH3 [3] = biological target: T1, KSRP KH3; remark: listed apart in the source
binder,measurement,setting,value
B1,Kd,KSRP KH3 [1],6 ± 2 µM
B2,binding signal,KSRP KH3 [2],~100 fold weaker than UGGGU
B3,binding result,KSRP KH4,no binding
same,binding result,KSRP KH2,no binding
same,binding result,KSRP KH1,no binding
same,binding result,KSRP KH3 [3],no binding
B4,Kd,KSRP KH3 [1],26 ± 5 µM

# Source: publication PMC2532734
